From the supplement of paper PMC9116672
± gives the standard deviation of the averaged measurements or the uncertainty stated by the source.

How the values were obtained:
[1] = duplex formation entropy ΔS (Van't Hoff fit of HRM Tm); higher = smaller entropy loss on duplex formation; settings: temperature for dG: 50 °C, NaCl: 500 mM (unadjusted)
Method: (§1)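 Duplex of the listed DNA strand with its complement, in 1x NNE buffer (500 mM NaCl, pH 7.0) with 1x EvaGreen. ΔH and ΔS come from a Van't Hoff linear fit of 1/Tm against ln(CT/4) over 1-20 uM, using HRM Tm values.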

[2] = duplex formation free energy ΔG50 (Van't Hoff fit of HRM Tm); higher = less stable duplex; settings: temperature for dG: 50 °C, NaCl: 500 mM (unadjusted)
Method: as §1

[3] = duplex formation enthalpy ΔH (Van't Hoff fit of HRM Tm); higher = less exothermic duplex formation; settings: temperature for dG: 50 °C, NaCl: 500 mM (unadjusted)
Method: as §1

[4] = duplex melting temperature (HRM, EvaGreen); higher = more stable duplex
Method: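 Listed DNA strand annealed 1:1 with its complementary strand (95 °C 5 min, 0.1 °C/s to 20 °C). Melted in 1x NNE buffer (500 mM NaCl, 10 mM Na2HPO4, 1 mM EDTA, pH 7.0) with 1x EvaGreen on a LightCycler96 (37 to 97 °C, 0.1 °C/s). Tm is the peak of -dF/dT at the stated total duplex concentration; 4 replicates are averaged. PS oligos are non-stereospecific (Rp/Sp mixtures).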

[5] = backbone: PO-PO (both strands phosphodiester DNA)
[6] = backbone: PS-PO (listed strand fully phosphorothioate, complement phosphodiester)
[7] = backbone: PS-PS (both strands fully phosphorothioate)
[8] = duplex concentration 1 µM, backbone: PO-PO (both strands phosphodiester DNA)
[9] = duplex concentration 1 µM, backbone: PS-PO (listed strand fully phosphorothioate, complement phosphodiester)
[10] = duplex concentration 1 µM, backbone: PS-PS (both strands fully phosphorothioate)
[11] = duplex concentration 2.5 µM, backbone: PO-PO (both strands phosphodiester DNA)
[12] = duplex concentration 2.5 µM, backbone: PS-PO (listed strand fully phosphorothioate, complement phosphodiester)
[13] = duplex concentration 2.5 µM, backbone: PS-PS (both strands fully phosphorothioate)
[14] = duplex concentration 5 µM, backbone: PO-PO (both strands phosphodiester DNA)
[15] = duplex concentration 5 µM, backbone: PS-PO (listed strand fully phosphorothioate, complement phosphodiester)
[16] = duplex concentration 5 µM, backbone: PS-PS (both strands fully phosphorothioate)
[17] = duplex concentration 7.5 µM, backbone: PO-PO (both strands phosphodiester DNA)
[18] = duplex concentration 7.5 µM, backbone: PS-PO (listed strand fully phosphorothioate, complement phosphodiester)
[19] = duplex concentration 7.5 µM, backbone: PS-PS (both strands fully phosphorothioate)
[20] = duplex concentration 10 µM, backbone: PO-PO (both strands phosphodiester DNA)
[21] = duplex concentration 10 µM, backbone: PS-PO (listed strand fully phosphorothioate, complement phosphodiester)
[22] = duplex concentration 10 µM, backbone: PS-PS (both strands fully phosphorothioate)
[23] = duplex concentration 15 µM, backbone: PO-PO (both strands phosphodiester DNA)
[24] = duplex concentration 15 µM, backbone: PS-PO (listed strand fully phosphorothioate, complement phosphodiester)
[25] = duplex concentration 15 µM, backbone: PS-PS (both strands fully phosphorothioate)
[26] = duplex concentration 20 µM, backbone: PO-PO (both strands phosphodiester DNA)
[27] = duplex concentration 20 µM, backbone: PS-PO (listed strand fully phosphorothioate, complement phosphodiester)
[28] = duplex concentration 20 µM, backbone: PS-PS (both strands fully phosphorothioate)

Row | Sequence | duplex formation entropy ΔS [1, 5] [cal/mol/K] | duplex formation entropy ΔS [1, 6] [cal/mol/K] | duplex formation entropy ΔS [1, 7] [cal/mol/K] | duplex formation free energy ΔG50 [2, 5] [kJ/mol] | duplex formation free energy ΔG50 [2, 6] [kJ/mol] | duplex formation free energy ΔG50 [2, 7] [kJ/mol] | duplex formation enthalpy ΔH [3, 5] [kJ/mol] | duplex formation enthalpy ΔH [3, 6] [kJ/mol] | duplex formation enthalpy ΔH [3, 7] [kJ/mol] | duplex melting temperature [4, 8] [°C] | duplex melting temperature [4, 9] [°C] | duplex melting temperature [4, 10] [°C] | duplex melting temperature [4, 11] [°C] | duplex melting temperature [4, 12] [°C] | duplex melting temperature [4, 13] [°C] | duplex melting temperature [4, 14] [°C] | duplex melting temperature [4, 15] [°C] | duplex melting temperature [4, 16] [°C] | duplex melting temperature [4, 17] [°C] | duplex melting temperature [4, 18] [°C] | duplex melting temperature [4, 19] [°C] | duplex melting temperature [4, 20] [°C] | duplex melting temperature [4, 21] [°C] | duplex melting temperature [4, 22] [°C] | duplex melting temperature [4, 23] [°C] | duplex melting temperature [4, 24] [°C] | duplex melting temperature [4, 25] [°C] | duplex melting temperature [4, 26] [°C] | duplex melting temperature [4, 27] [°C] | duplex melting temperature [4, 28] [°C]
1 | TAATTATACGAGTAGTTTCTGTCCTG | -340 ± 28 | -312 ± 13 | -245 ± 4.8 | -73.5 ± 2.85 | -58.1 ± 0.879 | -44.99 ± 0.163 | -533 ± 40.6 | -480 ± 18.8 | -376 ± 6.69 | 71.48 ± 0.47 | 62.1 ± 1.3 | 53.5 ± 0.9 | 72.48 ± 0.47 | 63.7 ± 0.66 | 55.8 ± 0.57 | 73.57 ± 0.43 | 65.23 ± 0.59 | 57.27 ± 0.51 | 74.63 ± 0.29 | 65.94 ± 0.5 | 58.41 ± 0.21 | 75.37 ± 0.084 | 66.63 ± 0.26 | 59.23 ± 0.13 | 76.277 ± 0.049 | 67.43 ± 0.14 | 60.07 ± 0.12 | 77.05 ± 0.094 | 67.855 ± 0.049 | 60.84 ± 0.17
2 | ACTCGCTCTACCTTAAT | -175 ± 9.7 | -176 ± 6.4 | -167 ± 6.3 | -49.5 ± 0.669 | -42.97 ± 0.251 | -38.35 ± 0.113 | -286 ± 13.8 | -280 ± 8.79 | -264 ± 8.37 | 60.43 ± 0.52 | – | 46.7 ± 0.53 | 62.88 ± 0.38 | 55.24 ± 0.45 | 50.2 ± 0.22 | 65.23 ± 0.53 | 57.69 ± 0.21 | 52.44 ± 0.085 | 66.57 ± 0.5 | 59.03 ± 0.074 | 53.72 ± 0.14 | 67.63 ± 0.18 | 59.946 ± 0.043 | 54.68 ± 0.21 | 69.17 ± 0.14 | 61.16 ± 0.2 | 55.75 ± 0.19 | 70.4 ± 0.34 | 62.06 ± 0.28 | 56.8 ± 0.2
3 | TGTAAGACTTCTGCCAGAAA | -339 ± 20 | -231 ± 11 | -196 ± 4.2 | -70.1 ± 1.88 | -52 ± 0.711 | -42.3 ± 0.105 | -529 ± 28.9 | -365 ± 15.5 | -308 ± 5.86 | 69.04 ± 0.47 | – | 51.3 ± 0.66 | 70.48 ± 0.32 | 62.5 ± 0.74 | 54 ± 0.63 | 71.8 ± 0.086 | 64.36 ± 0.58 | 56.14 ± 0.29 | 72.66 ± 0.2 | 65.49 ± 0.58 | 57.54 ± 0.21 | 73.31 ± 0.13 | 66.18 ± 0.34 | 58.2 | 73.99 ± 0.12 | 67.16 ± 0.27 | – | – | 67.83 ± 0.18 | –
4 | GGTTGCGGTGGCCAAC | -213 ± 13 | – | – | -61.4 ± 1.51 | – | – | -349 ± 19.7 | – | – | – | – | – | 72.47 ± 0.19 | – | – | 74.78 ± 0.39 | 59.24 ± 0.17 | – | 75.96 ± 0.48 | 59.89 ± 0.26 | 53.12 ± 0.24 | 76.87 ± 0.44 | 60.61 ± 0.24 | 53.68 ± 0.31 | 77.98 ± 0.31 | 61.52 ± 0.21 | 54.3 ± 0.32 | 78.76 ± 0.29 | 62.17 ± 0.44 | 54.47 ± 0.31
5 | TACTTCCAACGTAGG | -159 ± 4.2 | -160 ± 9.1 | – | -45.94 ± 0.251 | -40.29 ± 0.268 | – | -261 ± 5.86 | -257 ± 12.6 | – | – | 49.1 | 45.032 ± 0.023 | 59.72 ± 0.33 | 51.72 ± 0.075 | 45.59 ± 0.28 | 62 ± 0.17 | 55.02 ± 0.098 | 47.2 ± 0.46 | 63.52 ± 0.17 | 56.5 ± 0.21 | 48.26 ± 0.23 | 64.46 ± 0.077 | 57.42 ± 0.17 | 49.7 ± 0.78 | 66.07 ± 0.095 | 58.63 ± 0.099 | 50.85 ± 0.34 | 67.22 ± 0.12 | 59.46 ± 0.12 | 51.9 ± 0.73
